Here are results for one molecule from patent publication US20260092920A1 (FIBROINOVA BIOMEDICAL TECHNOLOGY GUANGZHOU, published 2026).

In this experiment the target is T1, His-tagged extracellular domain of antigen DDR2 (human, UniProt Q16832 22-399).
T1 construct: range 22-399; Captured on Ni-NTA sensors in BLI; also called extracellular domain protein of the DDR2 antigen; DDR2 antigen; not shown: His tag
T1 sequence (looked up): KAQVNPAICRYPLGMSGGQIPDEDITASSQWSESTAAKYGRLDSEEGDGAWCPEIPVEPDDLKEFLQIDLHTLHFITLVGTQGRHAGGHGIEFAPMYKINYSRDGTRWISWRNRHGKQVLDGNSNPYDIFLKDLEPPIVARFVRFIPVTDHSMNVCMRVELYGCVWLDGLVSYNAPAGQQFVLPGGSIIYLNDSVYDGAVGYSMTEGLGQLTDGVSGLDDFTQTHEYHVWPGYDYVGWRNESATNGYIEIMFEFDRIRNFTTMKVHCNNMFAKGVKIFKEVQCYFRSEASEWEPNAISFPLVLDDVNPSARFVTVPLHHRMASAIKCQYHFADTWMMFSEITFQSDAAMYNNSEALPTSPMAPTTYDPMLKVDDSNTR
In words: BLI (ForteBio), His-tagged DDR2 extracellular domain captured on Ni-NTA sensor, nanobody 100 nM to 3.125 nM in solution, 1:1 fit. As to the method:
For the DDR2 nanobody 1A12 described above, based on the ForteBio bio-layer interferometry (BLI) platform for molecular interaction analysis, the affinity of the nanobody for the extracellular domain protein of the DDR2 antigen was analyzed and detected by determining the affinity of the antibody for the antigen by using the BLI method.
The kinetic curves were made, and the relevant parameters were calculated. Appropriate binding and dissociation curves of several concentration gradients were selected. All the curves were fitted using the 1:1 binding model. Three curves with the best fitting degrees were selected for plotting and analysis. Finally, important parameters such as affinity value, binding constant, and dissociation constant were obtained.
For orientation: In BLI a coated tip is dipped into the sample, and binding shifts an interference pattern.

B1: DDR2 nanobody 1A12 (VHH)
VHH: EVQLVESGGGLVQPGGSLRLSCAASGYILSPNVMGWFRQAPGKGRELVAAISWGDGRTYYPDSVEGRFTISRDNAKRMVYLQMNSLRAEDTAVYYCAASRKGYPSTRSDPYNYWGQGTQVTVSS
notes: VHH of an alpaca heavy chain antibody raised against the human DDR2 extracellular domain; Expressed and purified; also called Nb-DDR2; 1A12-VHH
Take B1: the Kd (in general, the concentration at which binding is half-saturated) was 4.36 nM.
